Test results from article PMC13134850.

Molecular target: RadD adhesin of Fusobacterium nucleatum subsp. nucleatum ATCC 23726 (Fusobacterium nucleatum subsp. nucleatum ATCC 23726 (endogenous on the bacteria))
Test: flow cytometry on cells

NKp46 fusion protein (NKp46 Ig) (human) (from UniProt O76036 22-258) (Fc fusion)
fold increase in binding to ATCC 23726 ∆fad-I: 100 fold

B1: Ncr-1 fusion protein (Ncr-1 Ig) (mouse) (Fc fusion)
chain: QRINTEKETLPKPIIWAKPSIMVTNGNSVNIWCQGAQSASEYQLYFEGSFFALERPKPSRSMNKVRFFISQMTSHTAGIYTCFYQSGELWSKSSNPLKLVVTGLYDTPNLWVYPRPEVTLGENVTFFCQLKTATSKFFLLKERGSNHIQNKYGNIQAEFPMGPVTRAHRGTYRCFGSYNDYAWSFPSEPVTLLITGGVENSSLAPTDPTSSLDYWEFDLSTNESGLQKDSAFWDHTTQN
fold increase in binding to ATCC 23726 ∆fad-I: 100 fold
